# Experimental data taken from patent US9618524B2, “Method, composition, isolation and identification of a plaque particle and related biomarker” (Plaxgen Inc., priority 2012, dated 2017).
# B1: Angiotensinogen (protein)
# chain: DRVYIHPFHLVIHNESTCEQLAKANAGKPKDPTFIPAPIQAKTSPVDEKALQDQLVLVAAKLDTEDKLRAAMVGMLANFLGFRIYGMHSELWGVVHGATVLSPTAVFGTLASLYLGALDHTADRLQAILGVPWKDKNCTSRLDAHKVLSALQAVQGLLVAQGRADSQAQLLLSTVVGVFTAPGLHLKQPFVQGLALYTPVVLPRSLDFTELDVAAEKIDRFMQAVTGWKTGCSLMGASVDSTLAFNTYVHFQGKMKGFSLLAEPQEFWVDNSTSVSVPMLSGMGTFQHWSDIQDNFSVTQVPFTESACLLLIQPHYASDLDKVEGLTFQQNSLNWMKKLSPRTIHLTMPQLVLQGSYDLQDLLAQAELPAILHTELNLQKLSNDRIRVGEVLNSIFFELEADEREPTESTQQLNKPEVLEVTLNRPFLFAVYDQSATALHFLGRVANPLSTA
# B2: C4b-binding protein alpha chain (protein)
# chain: NCGPPPTLSFAAPMDITLTETRFKTGTTLKYTCLPGYVRSHSTQTLTCNSDGEWVYNTFCIYKRCRHPGELRNGQVEIKTDLSFGSQIEFSCSEGFFLIGSTTSRCEVQDRGVGWSHPLPQCEIVKCKPPPDIRNGRHSGEENFYAYGFSVTYSCDPRFSLLGHASISCTVENETIGVWRPSPPTCEKITCRKPDVSHGEMVSGFGPIYNYKDTIVFKCQKGFVLRGSSVIHCDADSKWNPSPPACEPNSCINLPDIPHASWETYPRPTKEDVYVVGTVLRYRCHPGYKPTTDEPTTVICQKNLRWTPYQGCEALCCPEPKLNNGEITQHRKSRPANHCVYFYGDEISFSCHETSRFSAICQGDGTWSPRTPSCGDICNFPPKIAHGHYKQSSSYSFFKEEIIYECDKGYILVGQAKLSCSYSHWSAPAPQCKALCRKPELVNGRLSVDKDQYVEPENVTIQCDSGYGVVGPQSITCSGNRTWYPEVPKCEWETPEGCEQVLTGKRLMQCLPNPEDVKMALEVYKLSLEIEQLELQRDSARQSTLDKEL
# B3: Serum paraoxonase/arylesterase (protein)
# chain: AKLIALTLLGMGLALFRNHQSSYQTRLNALREVQPVELPNCNLVKGIETGSEDLEILPNGLAFISSGLKYPGIKSFNPNSPGKILLMDLNEEDPTVLELGITGSKFDVSSFNPHGISTFTDEDNAMYLLVVNHPDAKSTVELFKFQEEEKSLLHLKTIRHKLLPNLNDIVAVGPEHFYGTNDHYFLDPYLQSWEMYLGLAWSYVVYYSPSEVRVVAEGFDFANGINISPDGKYVYIAELLAHKIHVYEKHANWTLTPLKSLDFNTLVDNISVDPETGDLWVGCHPNGMKIFFYDSENPPASEVLRIQNILTEEPKVTQVYAENGTVLQGSTVASVYKGKLLIGTVFHKALYCEL
# Tested on: Tau plaque particles
# Assay: Mass spectroscopy proteomics, semi-quantitative binding affinity of serum proteins (plaqueproteome, Table 2)
# Design: species or system human
# Details: higher number = stronger affinity
# Description: For Tau-74 (74-102) (Exon 3/Insert 2 domain) preparation, 1 mg of Tau-74 was suspended in 1 mL of PBS and the sample was incubated at 37° C. for 2 hrs. Similarly for preparing Tau-275 (275-305) (Repeat 2 domain) 1 mg of the peptide was suspended in 1 mL of PBS and the sample was incubated at 37° C. for 2 hrs. After incubation, all the samples were centrifuged for 5 min. at 5000 rpm to remove precipitate, if any, and the supernatant containing oligomers/aggregates were used for in vitro amyloid plaque particles formation assay. For detecting Tau plaque particles, Thioflavin S (Ex/Em=430 nm/550 nm) amyloid binding fluorescent dye (10 μg) was used in the assay.
# Next, to isolate Tau plaque particles, as performed for Abeta-42 and Abeta-28 plaque particles isolation, diluted serum samples were used for incubation separately with Tau-45, Tau-74 and Tau-275 oligomers/aggregates. Each assay was performed in 1 mL reaction (800 μL of 50% plasma or serum) and 200 μL (30 μg) of each Tau aggregates and the mixtures were incubated at 37° C. for 1 hr. To the each mixture Thioflavin S dye (120 μg) was added and the sample was incubated for additional 30 min at 37° C. After the incubation, each sample was directly used for sample acquisition using flow cytometer (FACS ARIA II, BD Biosciences, San Jose, Calif.). After initial detection of Tau plaque particles, gates were drawn in the acquisition blot to separately sort and isolate fluorescently labeled Tau plaque particles.
# (§1) For preparing trypsin digested peptide sequences, the isolated plaque particles were centrifuged at 10000 rpm for 5 min and the pellet containing plaque particles was resuspended in 100 μl PBS buffer. Stock solutions of digestion buffer (Ammonium Biocarbonate 50 mM), reducing buffer (DDT 100 mM) and alkylation buffer (lodoaceamide 100 mM) were prepared and stored at −20° C. for up to two months. For trypsin digestion, 100 μl of each plaque particles (2000 of Abeta-42, cholesterol, Tau and alpha-synuclein) were precipitated using cold acetone −80° C. by adding 4X's the volume. The samples were placed on dry ice for 10 min with intermittent vortex. Next, the samples were centrifuged at 4° C. at 10000 G for 10 min. Top layer of acetone was carefully removed from the tube with care not to disturb the plaque particles pellet. The samples were speed-vac for 10 min to ensure all acetone has been boiled away. The plaque particles pellet were reconstituted with 15 μl 8M Urea 100 mM Ammonium bicarbonate stock and 20 μl protease max solution. The protease max solution (Promega, Madison, Wis.) was prepared from stock by adding 60 μl 50 mM Ammonium bicarbonate and used for 3 solution digests (20 μl each). […] The tubes were incubated at 55° C. for 30 minutes. The tubes were then removed and brought to the room temperature followed by addition of 3.2 μl of 1M acrylamide and incubated at room temperature for 30 minutes. To the sample, 63 μL of 50 mM Ammonium bicarbonate was added for a final volume of 98 μl and 2 μl of trypsin (10 μg, Trypsin/Lys C Mix). After mixing the solution with pipet the samples were incubated at 37° C. overnight. After the overnight digest, the tryptic digest were quenched and acidified by adding 10 μl of 50% formic acid/water stock dilution. The samples were centrifuged at 10000 G for 2 minutes and purified using stage tip and used for MS/Mass analysis.
# (§2) All MS/MS samples were analyzed using Sequest (Thermo Fisher Scientific, San Jose, Calif., USA; version 1.0). Sequest was set up to search the SUMS_uniprot_Human database (35847 entries) assuming the digestion enzyme strict trypsin. Sequest was searched with a fragment ion mass tolerance of 1.00 Da and a parent ion tolerance of 20 PPM. Propionamide of cysteine was specified in Sequest as a fixed modification. Oxidation of methionine and phospho of serine, threonine and tyrosine were specified in Sequest as variable modifications.
row,Molecule,Semi-quantitative analysis of proteins binding to different plaque particles: Tau
1,B1,15
2,B2,1
3,B3,3

# Tested on: High Density cholesterol (Chl Large) plaque particles
# Assay: as above
# Design: species or system human
# Details: higher number = stronger affinity
# Description: (§3) The goal was to isolate plaque particles synthesized in the bio-fluids in a relatively pure form to enable their subsequent use for identification of components that contribute to the plaque formation. In order to isolate cholesterol plaque particles, the plasma or serum samples obtained from atherosclerotic subjects were first centrifuged at 5,000 rpm for 5 min and the supernatants were transferred to new centrifuge tubes. Next, the supernatants were diluted in PBS to make 50% of the serum and used for incubation with cholesterol oligomers/aggregates. Each assay was performed in 1 mL reaction (800 μL of 50% plasma or serum) and 200 μL (30 μg) of the Cholesterol aggregates and the mixtures were incubated at 37° C. for 1 hr After the incubation, the mixture was directly used for sample acquisition using flow cytometer (FACS ARIA II, BD Biosciences, San Jose, Calif.). […] In order to isolate these fractions, three sets of gates were drawn in the acquisition blot to separately sort and isolate High density or high complex cholesterol particles, Low density or low complex cholesterol particles and both High and low density cholesterol particles together.
# as §1, §2
# (§4) Scaffold (version Scaffold_4.2.1, Proteome Software Inc., Portland, Oreg.) was used to validate MS/MS based peptide and protein identifications. […] Protein probabilities were assigned by the Protein Prophet algorithm (Nesvizhskii, Al et al 2003).
row,Molecule,Semi-quantitative analysis of proteins binding to different plaque particles: Chl Large
1,B1,10
2,B2,8
3,B3,5

# Tested on: Low density cholesterol (Chl small) plaque particles
# Assay: as above
# Design: species or system human
# Details: higher number = stronger affinity
# Description: as §3, §1, §2, §4
row,Molecule,Semi-quantitative analysis of proteins binding to different plaque particles: Chl small
1,B1,9
2,B2,8
3,B3,6

# Molecular target: T1, alpha-synuclein plaque particles (Homo sapiens, UniProt P37840)
# T1 construct: 140 amino acids polypeptide
# Assay: as above
# Details: higher number = stronger affinity
# Description: To prepare oligomers/aggregates of human alpha-synuclein (140 amino acids polypeptide), 1 mg of the recombinant alpha-synuclein protein was suspended in 1 mL of PBS and the sample was incubated at 37° C. for 2 hrs. After incubation, all the samples were centrifuged for 5 min. at 5000 rpm to remove precipitate, if any, and the supernatant containing oligomers/aggregates were used in vitro plaque particles formation assay. For detecting alpha-synuclein plaque particles Thioflavin S (Ex/Em=430 nm/550 nm) amyloid binding fluorescent dye (10 μg) was used.
# Similarly, to isolate alpha-synuclein plaque particles, diluted plasma or serum samples obtained from AD subjects were used for incubation with alpha-synuclein plaque oligomers/aggregates. Each assay was performed in 1 mL reaction (800 μL of 50% plasma or serum) and 200 μL (30 μg) of the alpha-synuclein aggregates and the mixtures were incubated at 37° C. for 1 hr. To the mixture Thioflavin S dye (120 μg) was added and the sample was incubated for additional 30 min at 37° C. After the incubation, the mixture was directly used for sample acquisition using flow cytometer (FACS ARIA II, BD Biosciences, San Jose, Calif.). After initial detection of alpha-synuclein plaque particles, gates were drawn in the acquisition blot to separately sort and isolate fluorescently labeled alpha-synuclein particles.
# as §1, §2
# Scaffold (version Scaffold_4.2.1, Proteome Software Inc., Portland, Oreg.) was used to validate MS/MS based peptide and protein identifications.
row,Molecule,Semi-quantitative analysis of proteins binding to different plaque particles: Synuclein
1,B1,7
2,B2,7
3,B3,7

# Molecular target: T2, Abeta-42 plaque particles (Homo sapiens, UniProt P05067)
# T2 construct: Abeta 1-42
# Assay: as above
# Details: higher number = stronger affinity
# Description: Next to isolate serum derived Abeta-42 plaque particles, the plasma or serum samples obtained from AD subjects were first centrifuged at 5,000 rpm for 5 min and the supernatants were transferred to new centrifuge tubes. Next, the supernatants were diluted in PBS to make 50% of the serum and plasma samples and used for incubation with Abeta-42 plaque oligomers/aggregates. Each assay was performed in 1 mL reaction (800 μL of 50% plasma or serum) and 200 μL (30 μg) of the Abeta-42 aggregates and the mixtures were incubated at 37° C. for 1 hr. To the mixture Thioflavin S dye (120 μg) was added and the sample was incubated for additional 30 min at 37° C. After the incubation, the mixture was directly used for sample acquisition using flow cytometer (FACS ARIA II, BD Biosciences, San Jose, Calif.). After initial detection of Abeta-42 plaque particles in the acquisition blot, gates were drawn in fluorescent dot blot to separately sort and isolate fluorescently labeled Abeta-42 particles.
# as §1, §2
# as §4, with “2003). […] Proteins sharing significant peptide evidence were grouped into clusters. Proteins were annotated with GO terms from NCBI (downloaded Jan. 17, 2014).” for “2003).”
row,Molecule,Semi-quantitative analysis of proteins binding to different plaque particles: Abeta-42
1,B1,14
2,B2,0
3,B3,2
